# From patent publication US11725220B1, “Production of fusel lactates via biocatalysis” (National Technology & Engineering Solutions of Sandia, LLC, priority 2020, dated 2023)
# B1: EstA: esterase from Pseudomonas aeruginosa, expressed in BL21 E. coli (protein, UniProt O33407 25-646, looked up)
# Esterase EstA: APSPYSTLVVFGDSLSDAGQFPDPAGPAGSTSRFTNRVGPTYQNGSGEIFGPTAPMLLGNQLGIAPGDLAASTSPVNAQQGIADGNNWAVGGYRTDQIYDSITAANGSLIERDNTLLRSRDGYLVDRARQGLGADPNALYYITGGGNDFLQGRILNDVQAQQAAGRLVDSVQALQQAGARYIVVWLLPDLGLTPATFGGPLQPFASQLSGTFNAELTAQLSQAGANVIPLNIPLLLKEGMANPASFGLAADQNLIGTCFSGNGCTMNPTYGINGSTPDPSKLLFNDSVHPTITGQRLIADYTYSLLSAPWELTLLPEMAHGTLRAYQDELRSQWQADWENWQNVGQWRGFVGGGGQRLDFDSQDSAASGDGNGYNLTLGGSYRIDEAWRAGVAAGFYRQKLEAGAKDSDYRMNSYMASAFVQYQENRWWADAALTGGYLDYDDLKRKFALGGGERSEKGDTNGHLWAFSARLGYDIAQQADSPWHLSPFVSADYARVEVDGYSEKGASATALDYDDQKRSSKRLGAGLQGKYAFGSDTQLFAEYAHEREYEDDTQDLTMSLNSLPGNRFTLEGYTPQDHLNRVSLGFSQKLAPELSLRGGYNWRKGEDDTQQSVSLALSLDF
# B2: EEB1: esterase from Saccharomyces cerevisiae, expressed in BL21 E. coli, used as cell lysate (protein, UniProt Q02891 1-456, looked up)
# Medium-chain fatty acid ethyl …: MFRSGYYPTVTPSHWGYNGTVKHVLGEKGTKSLAFRDSKRQIPLHEFVTKHVPTLKDGANFRLNSLLFTGYLQTLYLSAGDFSKKFQVFYGREIIKFSDGGVCTADWVMPEWEQTYSLNAEKASFNEKQFSNDEKATHPKGWPRLHPRTRYLSSEELEKCHSKGYSYPLVVVLHGLAGGSHEPLIRALSEDLSKVGDGKFQVVVLNARGCSRSKVTTRRIFTALHTGDVREFLNHQKALFPQRKIYAVGTSFGAAMLTNYLGEEGDNCPLNAAVALSNPWDFVHTWDKLAHDWWSNHIFSRTLTQFLTRTVKVNMNELQVPENFEVSHKPTVEKPVFYTYTRENLEKAEKFTDILEFDNLFTAPSMGLPDGLTYYRKASSINRLPNIKIPTLIINATDDPVTGENVIPYKQARENPCVLLCETDLGGHLAYLDNESNSWLTKQAAEFLGSFDELVL
# modifications: cell lysate
# Columns and labels:
# [1] = 25° C.; cited from earlier work
# [2] = system: E. coli BL21-DE3; experiment: In vivo production of esters by engineered E. coli, culture supernatants by GC-MS (Example Set 3); format: cell-based; details: culture supernatant, M9 medium, 1 mM IPTG
# Excerpt: E. coli cells were engineered through two step cloning. First, the cells (E. coli BL21-DE3, a commercially available genetic transformation-ready strain) were cloned with esterase or transferase enzymes using pET15b plasmid at NdeI/BamHI locus in the vector.
# Specifically, plasmids were constructed (PT7::RBS:Gene*::PT7::RBS:pct::RBS:ldh in pET15b) and cloned in E. coli BL21-DE3 with ethanol producing plasmid (pACYDuet-Zm-pdc-Zm-adh). Cells were cultivated with high-cell density in M9 medium and induced with 1 mM IPTG.
# Culture supernatants were analyzed through HPLC (for ethanol and lactate) and GC-MS (for esters). Esterase-A yielded highest ethyl lactate (3.5±1.5 mg/L) and ethyl acetate (16±8 mg/L).
# FIGS. 18 and 19 show a GC-MS analysis of culture supernatants (collected after 22 h and 46 h of incubation) of mutants extracted with chloroform.
# [3] = Kinetics reaction assay, pNPA to pNP, Michaelis-Menten model (Example Set 2); format: biochemical; details: for specificity constant, comparison in words: FIG. 15; for vmax × 10^−6 / Km: pNPA to pNP, cell lysate 50 μg/ml protein, optimal temperature and pH of each enzyme; for Km: read-out: km × 10^−6; for kcat: turnover number, all protein detected by Bradford's reagent assumed to be the enzyme
# Excerpt: (§1) Esterase activity is used to indirectly measure the esterification activity required for enzymes to produce ethyl lactate. Cleavage of the ester bond in 4-nitrophenyl acetate (pNPA) to form 4-nitrophenol (pNP) and acetic acid is used to determine the esterase activity of the enzymes. The Km and Vmax values, found by applying the Michaelis-Menten kinetics model to experimental data found at optimal pH and temperature conditions, are used to evaluate enzymatic activity. As disclosed herein, hydrolysis of the ester bond in pNPA was used to estimate the esterification activity of the enzymes.
# Enzymatic activity can be characterized by calculating kinetic parameters for the enzymes considered. To calculate kinetic parameters for an enzyme, a kinetic model must be applied to the data.
# In this form, only the initial reaction rate and substrate concentrations are considered—with the initial reaction rate being the average change in product concentration between the reaction initiation and the first subsequent reading. Plotting the inverse of v0 against the inverse of [S0] results in what is known as a Lineweaver-Burk plot. An example of a Lineweaver-Burk plot is seen in FIG. 2.
# A linear regression of the data in such plots follows the linearized Michaelis-Menten equations. The y-intercept of the Lineweaver-Burk plot is the inverse of vmax; the slope multiplied by vmax gives the value of the km parameter. This is summarized in Equation 4: […]
# Therefore, the kinetic parameters of an enzyme can be determined through the parameters obtained through a linear regression applied to linearized kinetics data. Once vmax and km are determined, they can be used to calculate the turnover number and the specificity constant. This approach utilizes experiments being performed with varying initial substrate concentrations while holding all other parameters constant.
# (§2) This work involved two separate sets of examples (Generally, Example Set 1 and Example Set 2). Example Set 1 set was performed to determine the optimum temperature and pH conditions for each enzyme to catalyze the pNPA reaction. Three temperatures (22, 30, 37° C.) and three pH conditions (pH of 6, 7, 8) were tested. The temperature and pH condition which led to the highest product concentration were selected as the conditions to be used for each enzyme in Example set 2. The second set of examples was a kinetics reaction assay where reaction progress was measured at five time points (0, 15, 30, 60, 120) for six different initial pNPA concentrations (0, 25, 50, 100, 150, 200 μM).
# In Example Set 2, a kinetics reaction assay was performed on the enzymes from Table 1. […] That enzymatic activity was tested for at the ideal temperature and pH conditions determined in the optimization experiment.
# One deviation from the common protocols for Example Set 2 was that cell pellets had been stored in −80° C. for seven days instead of the usual 24 hours. In addition, the lysing process included more vigorous agitation.
# To determine the kinetic activity for each enzyme, substrate concentration was varied and measured at different time points. In addition to testing each enzyme, a wild type E. coli PET control (see Table 1) was run at its optimal conditions. A blank containing pNPA but no enzyme was also included for each of the temperature pH combinations to be tested.
# Initial pNPA concentrations were tested at 0, 25, 50, 100, 150, 200 μM. Measurements were made at 0, 15, 30, 60, and 120 minutes.
# The phosphate buffer was of pH 6, 7, or 8 as determined to be best from Example Set 1. Stock solutions of pNPA were made in different concentrations such that adding 20 μl to the reaction would result in the corresponding final pNPA concentration (either 25, 50, 100, 150, or 200 μM). Cell lysate was diluted to concentrations of 250 μg/m to allow for uniformity in the volume of lysate added to each reaction. Instead of diluted lysate, each blank received an extra 200 μl of phosphate buffer. […]
# [4] = Temperature and pH optimisation, pNPA reaction assay (Example Set 1); format: biochemical; details: tested 22, 30, 37 °C; pH 6, 7, 8; 100 μM pNPA
# Excerpt: as §1, §2
# Example Set 1 had the objective of determining the optimum temperature and pH conditions at which to run experiments for enzymatic activity characterization. As such, temperature and pH were the only conditions that varied in this experiment. Both were tested at three different levels which were similar to normal cell conditions: 22, 30 and 37° C. for temperature and 6, 7, and 8 for pH.
# These were tested for all 8 enzymes from Table 1, as well as the wild type control, and a blank containing no enzyme.
# The phosphate buffer was of 6, 7, or 8 pH, respectively. Lysate for each enzyme was diluted down to 250 μg/ml to facilitate ease of addition—each blank received an extra 100 μl of phosphate buffer instead of diluted cell lysate. The enzymatic component was added last and was the catalyst to initialize the reaction. The reactions were performed in three deep 96-well plates each of which was incubated at one of the temperature conditions. Agitation was provided by incubators shaking at 230 RPM.
# Readings were made at 30 and 60 minutes following the initialization of the reaction. To make a reading, 200 μl of the reaction volume were transferred from the deep well plates to standard 96-well plates. The pNP product of the pNPA reaction assays is detected through Absorbance at a wavelength of 410 nm.
# A curve was generated to convert from absorbances to pNP concentration. The relationship between a colored chemical and its absorbance is usually linear and can be used to convert absorbance values into chemical concentrations. To know how much pNP was being detected through absorbance, it was necessary to create a standard curve to obtain values for the relationship between the concentration of pNP and the absorbance of pNP. Creating a standard curve involved creating samples of different pNP concentrations. For the pNP to give color, it needed to be ionized. Accordingly, pNP was ionized in the presence of NaOH at a concentration of 0.4 g/ml. A standard curve was created by taking the absorbance of pNP at various known concentrations. […] As also seen in FIG. 5, the data (solid line) closely follows a linear pattern over the concentration range being tested for pNP. The R2 value for the linear regression is 0.9939. The formula for converting from absorbance to pNP, derived from that linear regression, is seen in Equation A1: [pNP]=(Abs+0.0244)/25.929 [A1]
Molecule,vapor pressure [1] [mm Hg],ethyl acetate yielded [2] [mg/L],ethyl lactate yielded [2] [mg/L],"specificity constant, comparison in words [3]",vmax × 10^−6 [3],Km [3] [µM],kcat [3] [s⁻¹],Temperature giving 2nd highest conversion of pNPA to pNP [4] [°C],Temperature giving highest conversion of pNPA to pNP [4] [°C],pH giving 2nd highest conversion of pNPA to pNP [4],pH giving highest conversion of pNPA to pNP [4]
CCOC(=O)C(C)O (stereo not drawn) [ethyl lactate],3.75,–,–,–,–,–,–,–,–,–,–
Cc1ccccc1 [toluene],28.4,–,–,–,–,–,–,–,–,–,–
xylene,8.84,–,–,–,–,–,–,–,–,–,–
B1,–,16 ± 8,3.5 ± 1.5,top performing enzymes,1.09 ± 0.05 × 10^−6 molL^−1s^−1,4.89 ± 1.16,1.52 ± 0.36,37,22,8,7
B2,–,–,–,top performing enzymes,1.34 ± 0.26 × 10^−6 molL^−1s^−1,3.9 ± 0.74,1.39 ± 0.26,30,22,8,7
